The text below walks through data of patent US20230056252A1 (Gilead, published 2023).

In experiment [1] the target is T1, biotinylated CD3 epsilon:delta heterodimer protein (Amsbio AMS.CDD-H52WO) (Homo sapiens (Human), UniProt P07766 23-126; P04234 22-105).
T1 construct: also called CD3 heterodimer
The experiment in a line: BLI (Octet), CD3 on SA sensor, Fab analyte. A general note: Biolayer interferometry detects binding as a change in optical thickness at a sensor tip.
Procedure: (§1) The CD3 binding kinetics of the purified huSP34 Fabs were determined using OctetRed384 (Pall ForteBio, CA) biolayer interferometry (BLI). […] Streptavidin (SA) coated biosensors tips (Pall ForteBio, CA) were used to capture biotinylated CD3 epsilon: delta heterodimer and typical immobilization levels captured on the SA sensors were 1 nm which approximately translates to 300 ng/ml of captured protein. For kinetic measurements biosensors were first pre-wetted with assay buffer for 10 minutes to remove protective sucrose coating followed by the recommended regeneration conditions for standardization of the biosensor surface for the experiment. In order to load the biosensors with antigen, 300 ng/ml of biotinylated CD3 epsilon: delta heterodimer protein (Amsbio AMS.CDD-H52WO) was immobilized on the SA sensor for 900 seconds. The CD3 loaded biosensors were then blocked with 20 ug/ml biocytin (sigma) for 200 seconds and then dipped into assay buffer containing wells for 200 seconds to remove any non-specific protein or unbound CD3 heterodimer.
(§2) CD3 loaded and biocytin blocked biosensors were then transferred into fresh assay buffer for 200 seconds to collect a baseline read. Kinetic measurements for anti-CD3 Fab and bispecific antibody binding were performed by dipping the CD3-coated biosensors into wells containing multiple concentrations of Fab or Ab (0-300 nM) for 100 seconds followed by a 300 second dissociation time by transferring the biosensors into assay buffer containing wells. The CD3 loaded sensors were then regenerated for the next kinetic measurement. Biosensors were generated by removing bound Fabs or Ab from immobilized CD3 on SA biosensors. Regeneration conditions used consisted of 3 cycles of 5 seconds of dipping the biosensors in Regeneration Buffer (10 mM Glycine HCl pH 1.5) followed by Assay Buffer (10 mM sodium phosphate pH 7.4, 140 mM Sodium Chloride, 0.005% Tween20 with 0.2% BSA).

Experiment [2] has as its target T1, biotinylated CD3 epsilon:delta …. The experiment in a line: BLI (Octet), CD3 on SA sensor, Fab analyte. The source holds these as a separate data set.
Procedure: as §1, §2

Read-outs that look alike come from different tables or passages of the source.

B1: huSP34.3.13 Fab-HF (Fab, V domains shown)
VH: EVQLVESGGGLVQPGGSLRLSCAASGFTFNTYAMNWVRQAPGKGLEWVGRIRSKYNNYATYYADSVKGRFTISRDDSKNSLYLQMNSLRTEDTAVYYCVRHGNFGHSYVSWFAYWGQGTLVTVSS
VL: QAVVTQEPSLTVSPGGTVTLTCGSSTGAVTTGHYANWVQQKPGQAPRGLIGGTSNRAPGVPARFSGSLLGGKAALTISGAQPEDEAEYYCALWYSNRWVFGGGTKLTVL
notes: also called HC3+LC13
Usually Kd stands for a measure of binding affinity in units of concentration. A higher Kd goes with lower affinity. For orientation: koff means the rate constant with which the complex falls apart. A low value points to slow dissociation. By kon is commonly meant the second-order rate constant of association. A low value points to slow association. As to B1, in experiment [1], the Kd came out at 6.2 nM, the dissociation rate constant (koff) amounted to 0.00129 s⁻¹ and the association rate constant (kon) amounted to 218000 M⁻¹ s⁻¹.

B2: huSP34.7.6 Fab-HF (Fab, V domains shown)
VH: EVQLVESGGGLVQPGGSLRLSCAASGFTFSDYAMNWVRQAPGKGLEWVGRTRSKYNNYATYYAASVKGRFTISRDDSKNSLYLQMNSLKTEDTAVYYCVRHGNFGNSYVSWFAVWGQGTLVTVSS
VL: QAVVTQPPSLTVSPGGTVTLTCGSSTGAVTTGHYANWVQQKPGQAPRGLIGGTSNRAPGVPARFSGSLSGGKAALTISGAQPEDEAEYYCALWYSARWVFGGGTKLTVL
notes: also called HC7+LC6
In experiment [2], B2 displayed a dissociation constant (Kd) of 425 nM, a koff of 0.17 s⁻¹ and an on-rate (kon) of 403000 M⁻¹ s⁻¹.

B3: huSP34.10.6 Fab-HF (Fab, V domains shown)
VH: EVQLVESGGGLVQPGGSLRLSCAASGFTFSDYAMNWVRQAPGKGLEWVGRTRSKYNSYATYYAASVKGRFTISRDDSKNSLYLQMNSLKTEDTAVYYCVRHGNFGHSYVSWFAVWGQGTLVTVSS
VL: QAVVTQPPSLTVSPGGTVTLTCGSSTGAVTTGHYANWVQQKPGQAPRGLIGGTSNRAPGVPARFSGSLSGGKAALTISGAQPEDEAEYYCALWYSARWVFGGGTKLTVL
notes: also called HC10+LC6
In experiment [2], B3 showed a Kd of 314 nM and an off-rate (koff) of 0.157 s⁻¹.

B4: huSP34.6.6 Fab-HF (Fab, V domains shown)
VH: EVQLVESGGGLVQPGGSLRLSCAASGFTFSTYAMNWVRQAPGKGLEWVGRIRSKYNNYATYYADSVKGRFTISRDNSKNTLYLQMNSLRAEDTAMYYCVRHGNFGNSYVSWFAVWGQGTLVTVSS
VL: QAVVTQPPSLTVSPGGTVTLTCGSSTGAVTTGHYANWVQQKPGQAPRGLIGGTSNRAPGVPARFSGSLSGGKAALTISGAQPEDEAEYYCALWYSARWVFGGGTKLTVL
notes: also called HC6+LC6
In experiment [2], B4 displayed a Kd of 75 nM, an off-rate (koff) of 0.0292 s⁻¹ and a kon of 464000 M⁻¹ s⁻¹.

B5: huSP34.5.6 Fab-HF (Fab, V domains shown)
VH: EVQLVESGGGLVQPGGSLRLSCAASGFTFSTYAMNWVRQAPGKGLEWVGRIRSKYNNYATYYADSVKGRFTISRDNSKNTLYLQMNSLRAEDTAVYYCVRHGNFGHSYVSWFAVWGQGTLVTVSS
VL: QAVVTQPPSLTVSPGGTVTLTCGSSTGAVTTGHYANWVQQKPGQAPRGLIGGTSNRAPGVPARFSGSLSGGKAALTISGAQPEDEAEYYCALWYSARWVFGGGTKLTVL
notes: also called HC5+LC6
As for B5, in experiment [2], the equilibrium dissociation constant (Kd) was determined as 268 nM, the koff was determined as 0.0746 s⁻¹ and the kon came out at 280000 M⁻¹ s⁻¹.

B6: huSP34.9.6 Fab-HF (Fab, V domains shown)
VH: EVQLVESGGGLVQPGGSLRLSCAASGFTFSDYAMNWVRQAPGKGLEWVGRTRSKYNSYATYYAASVKGRFTISRDDSKNSLYLQMNSLKTEDTAVYYCVRHGNFGNSYVSWFAVWGQGTLVTVSS
VL: QAVVTQPPSLTVSPGGTVTLTCGSSTGAVTTGHYANWVQQKPGQAPRGLIGGTSNRAPGVPARFSGSLSGGKAALTISGAQPEDEAEYYCALWYSARWVFGGGTKLTVL
notes: also called HC9+LC6
For the molecule B6, in experiment [2], the dissociation constant (Kd) came out at 289 nM, the koff worked out at 0.169 s⁻¹ and the on-rate constant (kon) is 582000 M⁻¹ s⁻¹.

B7: huSP34.3.19 Fab-HF (Fab, V domains shown)
VH: EVQLVESGGGLVQPGGSLRLSCAASGFTFNTYAMNWVRQAPGKGLEWVGRIRSKYNNYATYYADSVKGRFTISRDDSKNSLYLQMNSLRTEDTAVYYCVRHGNFGHSYVSWFAYWGQGTLVTVSS
VL: QAVVTQEPSLTVSPGGTVTLTCGSSTGAVTTGHYANWVQQKPGQAPRGLIGGTNKRAPGVPARFSGSLLGGKAALTISGAQPEDEAEYYCALWYSARWVFGGGTKLTVL
notes: also called HC3+LC19
In experiment [1], B7 displayed a dissociation constant Kd of 9.9 nM, an off-rate (koff) of 0.00164 s⁻¹ and a kon of 193000 M⁻¹ s⁻¹.
